Measured values from the nanobody polyreactivity screen of Harvey et al. (2022).

Experiment: yeast display, Sf9 membrane polyspecificity reagent, FACS + sequencing; frameworks hold sequencing errors
In short: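 In a synthetic yeast display library (Saccharomyces cerevisiae BJ5465), nanobody expression was induced with galactose for 36–48 hours. FACS gates were set low and high (top ~1%) using anti-HA fluorescence for expression and streptavidin fluorescence for binding of the Sf9 membrane reagent. Each polyreactivity label is drawn from the gate of origin.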

Row | Sequence | polyreactivity (PSR sort gate)
1 | QVQLVESGGGLVQAGGSLRLSCAASGRTFKGYTMGWYRQAPGKERELVAAITRSGGGTYYADSVKGRFTISRDNAKNTVYLQMNSLKPEDTAVYYCAARRPGYYYPSKFDYWGQGTQVTVSS | high polyreactivity
2 | QVQLVESGGGLVQAGGSLRLSCAASGRTFKGYTMGWYRQAPGKERELVAVITWSGDRTYYADSVKGRFTISRDNAKNTVYLQMNSLKPEDTAVYYCAARGYSLRTRGDYWGQGTQVTVSS | high polyreactivity
3 | QVQLVESGGGLVQAGGSLRLSCAASGRTFKIYAMGWYRQAPGKERELVAAITWNGDSTHYADSVKGRFTISRDNAKNTVYLQMNSLKPEDTAVYYCNRVGYQSMNYWGQGTQVTVSS | low polyreactivity
4 | QVQLVESGGGLVQAGGSLRLSCAASGRTFKKNAMGWYRQAPGKERELVAAITGSGGSTYYADSVKGRFTISRDNAKKTVYLQMNSLKPEDTAVYYCAAYAYGVWHSQDCGNYWGQGTQVTVSS | low polyreactivity
5 | QVQLVESGGGLVQAGGSLRLSCAASGRTFKKYAMGWYRPAPRKERELVAAITGSGGSTYYADSVKGRFTISRDNAKNTVYLQMNSLKPEDTAVYYCAAYAYGVWHSQDGGNYWGQGTQVTVSS | low polyreactivity
6 | QVQLVESGGGLVQAGGSLRLSCAASGRTFKLNAMGWYRKAPGKERELVAGITRTGDSTYYADSVKGRFTISRDNAKNTVYLQMNSLKPEDTAVYYCAAAEWYSMDYWGQGTQVTVSS | low polyreactivity
7 | QVQLVESGGGLVQAGGSLRLSCAASGRTFKLNAMGWYRQAPGKERELVAAISRNGGSTYYADSVKGRFTISRDNAKNTVYLQMNSLKPEDTAVYYCAAVRHGVSLAGYYWGQGTQVTVSS | high polyreactivity
8 | QVQLVESGGGLVQAGGSLRLSCAASGRTFKLYGMGWYRQAPVKEREFVAAITQGGGSTFYADSVKGRFTISRDNSKNTVYLQMNSLKPEDTAVYYCAARTQIFSRYRGFYSWGQGTQVTVSS | high polyreactivity
9 | QVQLVESGGGLVQAGGSLRLSCAASGRTFKRNGMGWYRQAPGKERELVAAIRNTGSTKYADSVKGRFTISRDNAKNTVYLQMNSLKPEDTAVYYCNARVYEAQTYYYWGQGTQVTVSS | high polyreactivity
10 | QVQLVESGGGLVQAGGSLRLSCAASGRTFKRNPMGWYRQAPGKERELVAAISGTGSTNYADSVKGRFTISRDNAKNTVYLQMNSLKPEDSAVYYCNADIYSYRYPYVYWGQGTQVTVSS | low polyreactivity
11 | QVQLVESGGGLVQAGGSLRLSCAASGRTFKRYAMGWYRQAPGKERELVAAITRSGGSTYYADSVKGRFTISRDNAKNTVYLQMNSLKPEDTAVYYCATRSYNNELEYWGQGTQVTVSS | high polyreactivity
12 | QVQLVESGGGLVQAGGSLRLSCAASGRTFKSYAMGWYRQAPGKERELVAAISSSGGRTFYADSVKGRFTISRDNAKNTVYLQMNSLKPEDTAVYYCNARYCYRYGGYKPVGGYYWGQGTQVTVSS | high polyreactivity
13 | QVQLVESGGGLVQAGGSLRLSCAASGRTFKSYSMGWYRQAPGKERELVAAISWSGGSTYYADSVKGRFTISRDNAKNTVYLQMNSLKPEDTAVYYCAKRGYASGSKWDYGYWGQGTQVTVSS | high polyreactivity
14 | QVQLVESGGGLVQAGGSLRLSCAASGRTFKTYAMGWYRQAPGKERELVAAIDSGGNTYADSVKGRFTISRDNAKNTVYLQMNSLKPEDTAVYYCAVDGGEFSSYGYWGHGTQVTVSS | low polyreactivity
15 | QVQLVESGGGLVQAGGSLRLSCAASGRTFKWYAMGWYRQAPGKERELVAGISRGAGRTYYADSVKGRFTISRDNAKNTVYLQMNSLKPEDTAVYYCAAVPSYHSTSPFYYWGQGTQVTVSS | high polyreactivity
16 | QVQLVESGGGLVQAGGSLRLSCAASGRTFKWYPMGWYRQATGKERELVAGITSTGTTSYADSVKGRFTISRDNAKNTVYLQMNSLKPEDTAVYYCNTYYRWWKYDYWGQGTQVTVSS | high polyreactivity
17 | QVQLVESGGGLVQAGGSLRLSCAASGRTFKYNTMGWYRQAPGKEREFVAAINWSGGSTYSAASVKGRFTISRDNAKNTVYLQMNSLKPEDTAVYYCAARRVYLGEYDYWGQGTQVTVSS | high polyreactivity
18 | QVQLVESGGGLVQAGGSLRLSCAASGRTFKYYAMGWYRQAPGKERELVAAISWNGGSTYYADSVKGRFTISRDNAKNTVYLQMNSLKPEDTAVYYCAARYYAAGIGSRYDYWGQGTQVTVSS | high polyreactivity
19 | QVQLVESGGGLVQAGGSLRLSCAASGRTFKYYAMGWYRQAPGKERELVASISRSGGITYYADSVKGRFTISRDNAKNTVYLQMNSLKPEDTAVYYCAARYSVRPISIYPFDFGYWGQGTQVTVSS | low polyreactivity
20 | QVQLVESGGGLVQAGGSLRLSCAASGRTFKYYAMGWYRQAPGKERELVATISFRGGSTYYADSVKGRFTISRDNAKNTVYLQMNSLKPEDTAVYYCAATTPYYTPRRRNDYWGQGTQVTVSS | high polyreactivity
21 | QVQLVESGGGLVQAGGSLRLSCAASGRTFKYYAMGWYRQAPGKERELVATITWSGTSTNYADSVKGRFTISRDNAKNTVYLQMNSLKPEDTAVYYCAARSKRRNYDYWGQGTQVTVSS | high polyreactivity
22 | QVQLVESGGGLVQAGGSLRLSCAASGRTFLAYTMGWYRQAPGKEMELVAAISTPGGSTYYADSVKGRFTISRDNAKNTVYIQMNSLKPEDTAVYYCAAADSTWFDWGNYWYYYWGQGTQVTVSS | low polyreactivity

Row | Sequence | polyreactivity (PSR sort gate)
23 | QVQLVESGGGLVQAGGSLRLSCAASGRTFLENAMGWYRQAPGKERELVAAISWRGGNTHYADSVKGRFTISRDNAKNTVYLQMNSLKPEDTAVYYCNAVNYRNKYDYWGQGTQVTVSS | high polyreactivity
24 | QVQLVESGGGLVQAGGSLRLSCAASGRTFLINAMGWYRQAPGKERELVAAINYGGGSTYYADSVKGRFTISRDNAKNTVYLQMKSLKPEDTAVYYCSTEYYDTYVGSYSYWGAKYGSWGQGTQVTVSS | low polyreactivity
25 | QVQLVESGGGLVQAGGSLRLSCAASGRTFLLYAMGWYRQAPGKERELVAAISRGGGSTFYADTVKGRFTLSRDNAKNTVYLQRNSLKPDDTAVYYCAAYGRYYYIYDYCGQGTQVTVSS | high polyreactivity
26 | QVQLVESGGGLVQAGGSLRLSCAASGRTFLQYGMGWYRQAPGKERELVAAITTSGGDTYYADSVKGRFTISRDNAKNTVYLQMNSQKPEDTAVYYCNAEPRYGTYDYWGQGTQVTVSA | low polyreactivity
27 | QVQLVESGGGLVQAGGSLRLSCAASGRTFLRYAMGWSRQAPGKERELVAAISSRGGRTYYADSVKGRFTISRDNAKNTVYLQMNILKPEDTAVYYCNARYSPRTGRGRHVTYYYWGQGTQVTVSS | high polyreactivity
28 | QVQLVESGGGLVQAGGSLRLSCAASGRTFLSYMGWYRQAPGKERELVAISRSGTSTYYADSVKGRFTISRDNAKNTVYLQMNSLKPEDTAVYYCAATRRYPQYRGYDYWGQGTQVTVSS | high polyreactivity
29 | QVQLVESGGGLVQAGGSLRLSCAASGRTFLTNPMGWYRQAPGKETELVAVITSSGGTYYADSVKGRFSISRDNAKNTVYLQMNSLKPEYTEVYYCNTRQQFTLTRGVFLHNYWGQGTQVTVSS | high polyreactivity
30 | QVQLVESGGGLVQAGGSLRLSCAASGRTFLVNAMGWYRQAPGKEREFVAAITSRSGRTNYADSVKGRFTISRDNAKNTVYLQSNSLKPEDTAVYYCNAEGYTVKYWYSRYDYWGQGTQVTVSS | high polyreactivity
31 | QVQLVESGGGLVQAGGSLRLSCAASGRTFLVYAMGWYRQAPGKERELVADITSGGSTDYADSVKGRFTISRDNAKNTVYLQMNSLKPEDTAVYYCATDLWRWYGWFDYWGQGTQVTVSS | low polyreactivity
32 | QVQLVESGGGLVQAGGSLRLSCAASGRTFLVYTMGWYRQAPGKERELVAAISWSDGSTYYADSEKGRFTISRDNAKNTVYLQMNSLKPEDTAVYYCAARRTGYLYRYGYWGQGTQVTVSS | low polyreactivity
33 | QVQLVESGGGLVQAGGSLRLSCAASGRTFLWNAMGWYRQAPGKERELVARINLSGGRTYYADSVKGRFTISRDNAKNTVYLQMNSLKPEDTAVYYCAATVVRYRRDSWGQGTQVTVSS | low polyreactivity
34 | QVQLVESGGGLVQAGGSLRLSCAASGRTFLYYAKGWYRQAPGKERELGAAISSGGSTNYADSVKGRFTISRDNAKNTVYLQMNSLKPEDTAVYYCNADYTSRDTSDVIYEYDYWGQGTQVTVSS | low polyreactivity
35 | QVQLVESGGGLVQAGGSLRLSCAASGRTFLYYAMGWYRQAPGKERELVAAIRRGSSTYYADSVKGRFTISRDNAKNTVYLQMNSLKPEDTAVYYCNKVYYAFRVSLYRYGYWGQGTQVTVSS | high polyreactivity
36 | QVQLVESGGGLVQAGGSLRLSCAASGRTFLYYAMGWYRQAPGKERELVAAISSGADSTYYADSVKGRFTISRDNAKNTVYLQMNSLKPEDTAVYYCAAGGSHDGVWDDYWGQGTQVTVSS | high polyreactivity
37 | QVQLVESGGGLVQAGGSLRLSCAASGRTFLYYTMGWYRQAPGTERELVATINYSGGRTYYADSVKGRFTISRDNANNTVYFQMNSLKPVATAVYFWAKSGRALWWYDYWGQGTQVTVSS | high polyreactivity
38 | QVQLVESGGGLVQAGGSLRLSCAASGRTFNAYAMGWYRLAPWKERELVAAISSGGSTYYADSVKGRFTISRDNAKNTVYLQMNSLKQEDTAVYYSNKVYGWRQFDYWGNGTQVTVSS | high polyreactivity
39 | QVQLVESGGGLVQAGGSLRLSCAASGRTFNFNTMGWYRQAPGKEREFVAAITFRGVRTYYADSVKGRFTISRDNAKNTVYLQMNSLKPEDTAVYYCAADAPRSYRFGYWGQGTQVTVSS | high polyreactivity
40 | QVQLVESGGGLVQAGGSLRLSCAASGRTFNGYALGSSRQAPGKERELVAAISGRGRSTRYADSVKGRFTISRDNAKNTVYLQMNSLNPEDTAVYYCNARGYSETQREYDSWGQGTQVTVSS | high polyreactivity
41 | QVQLVESGGGLVQAGGSLRLSCAASGRTFNKYAMGWYRQAPGKERELVAAIRDGSGGRTNYADSVKGRFTISRDNAKNTVYLQMNSLKPEDTAVYYCNADDSKYPYYTDDYWGQGTQVTVSS | low polyreactivity
42 | QVQLVESGGGLVQAGGSLRLSCAASGRTFNPNAMGWYRQAPGKERELVAAISSSGGSTYYADSVKGRFTISRDNAKNTVYLQMNSLKPEDTAVYYCAAVHKWYLYYYWGQGTQVTVSS | high polyreactivity
43 | QVQLVESGGGLVQAGGSLRLSCAASGRTFNPYTMGWYRQAPGKEREFVATIRKSSGGTYYADSVKGRFTISRDTAKNTVYLQMNSLKPEDTAVYYCAAVGNGGMDYWGQGTQVTVSS | low polyreactivity
